Where two headings read alike, the source gives them in different places.
B1: human ULBP2-Fc (Fc fusion, UniProt Q9BZM5 26-217, looked up)
chain: GRADPHSLCYDITVIPKFRPGPRWCAVQGQVDEKTFLHYDCGNKTVTPVSPLGKKLNVTTAWKAQNPVLREVVDILTEQLRDIQLENYTPKEPLTLQARMSCEQKAEGHSSGSWQFSFDGQIFLLFDSEKRMWTTVHPGARKMKEKWENDKVVAMSFHYFSMGDCIGWLEDFLMGMDSTLEPSAGAPLAMSS
notes: Bought from R&D Systems; also called recombinant human ULBP2-Fc; not shown: Fc part (detected with anti-human Fc)
B2: human NKG2D, cell surface (receptor, UniProt P26718 1-216, looked up)
chain: MGWIRGRRSRHSWEMSEFHNYNLDLKKSDFSTRWQKQRCPVVKSKCRENASPFFFCCFIAVAMGIRFIIMVTIWSAVFLNSLFNQEVQIPLTESYCGPCPKNWICYKNNCYQFFDESKNWYESQASCMSQNASLLKVYSKEDQDLLKLVKSYHWMGLVHIPTNGSWQWEDGSILSPNLLTIIEMQKGDCALYASSFKGYIENCSTPNTYICMQRTV
notes: whole, on cells; also called cell surface human NKG2D

How the values were obtained:
[1] = target: T1, human Fc-NKG2D (human, UniProt P26718 78-216); assay: SPR (BIAcore 2000), human Fc-NKG2D immobilized on chip
T1 construct: range 78-216; Bought from R&D Systems: a recombinant fusion protein of human Fc and the extracellular domain (amino acids 78-216) of human NKG2D; also called human NKG2D (immobilized); not shown: human Fc
T1 sequence (looked up): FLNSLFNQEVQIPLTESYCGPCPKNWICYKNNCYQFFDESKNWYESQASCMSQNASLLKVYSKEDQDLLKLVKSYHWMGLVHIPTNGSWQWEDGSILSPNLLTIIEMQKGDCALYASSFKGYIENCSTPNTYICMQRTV

[2] = target: T1, human Fc-NKG2D; assay: SPR (BIAcore 2000), human Fc-NKG2D immobilized on chip; koff/kon
[3] = target: T2, BSA (bovine, UniProt P02769); assay: ELISA, protein coated at 100 ng/well, Fab detected with goat anti-human Fab-HRP, absorbance at 405 nm
T2 construct: coated on the ELISA plate; also called bovine serum albumin

[4] = target: T3, mouse Fc-NKG2D (mouse, UniProt O54709 94-232, limits assumed); assay: as above
T3 construct: Bought from R&D Systems; also called mouse NKG2D; not shown: Fc part
T3 sequence (looked up): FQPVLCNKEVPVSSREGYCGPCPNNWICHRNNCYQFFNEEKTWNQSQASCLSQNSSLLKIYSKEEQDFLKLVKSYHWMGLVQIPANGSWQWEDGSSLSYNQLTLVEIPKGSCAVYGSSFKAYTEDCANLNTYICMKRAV

[5] = target: T4, human CD22-Fc (human, UniProt P20273 20-687); assay: as above
T4 construct: Bought from R&D Systems; not shown: Fc part
T4 sequence (looked up): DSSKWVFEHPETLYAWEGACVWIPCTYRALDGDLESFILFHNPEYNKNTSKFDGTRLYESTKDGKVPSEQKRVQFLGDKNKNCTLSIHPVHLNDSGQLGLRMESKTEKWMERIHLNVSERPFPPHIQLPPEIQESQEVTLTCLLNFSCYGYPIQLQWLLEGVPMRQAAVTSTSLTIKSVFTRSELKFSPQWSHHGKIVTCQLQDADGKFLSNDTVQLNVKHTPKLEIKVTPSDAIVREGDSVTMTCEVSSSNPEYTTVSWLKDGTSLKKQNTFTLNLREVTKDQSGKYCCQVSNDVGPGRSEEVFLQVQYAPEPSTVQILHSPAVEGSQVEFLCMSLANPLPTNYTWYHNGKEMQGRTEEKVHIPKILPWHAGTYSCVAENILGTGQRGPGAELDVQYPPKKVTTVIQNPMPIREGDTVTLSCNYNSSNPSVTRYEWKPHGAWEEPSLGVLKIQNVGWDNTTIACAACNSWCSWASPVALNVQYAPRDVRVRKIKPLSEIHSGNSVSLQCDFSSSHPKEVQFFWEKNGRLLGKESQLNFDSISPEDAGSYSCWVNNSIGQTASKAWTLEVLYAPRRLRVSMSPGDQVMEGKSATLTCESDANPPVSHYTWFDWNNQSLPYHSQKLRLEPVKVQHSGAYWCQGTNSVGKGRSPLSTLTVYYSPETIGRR

[6] = target: B1; assay: as above
[7] = target: T5, human CD23 (human, UniProt P06734 150-321, limits assumed); assay: as above
T5 construct: Bought
T5 sequence (looked up): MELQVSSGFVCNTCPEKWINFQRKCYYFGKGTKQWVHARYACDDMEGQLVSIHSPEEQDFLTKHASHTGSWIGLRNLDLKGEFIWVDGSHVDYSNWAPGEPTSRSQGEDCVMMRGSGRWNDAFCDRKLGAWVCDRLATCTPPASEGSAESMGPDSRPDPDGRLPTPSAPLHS

[8] = target: T1, human Fc-NKG2D; assay: SPR (BIAcore 2000), human Fc-NKG2D immobilized on chip; bivalent IgG
[9] = target: T1, human Fc-NKG2D; assay: SPR (BIAcore 2000), human Fc-NKG2D immobilized on chip; bivalent binding (virtual affinity, avidity)
[10] = target: B2; assay: whole-cell ELISA on HEK 293F/human NKG2D, 100 ng ligand-Fc, detected with biotinylated goat anti-human Fc and streptavidin-HRP, absorbance at 405 nm [panel ULBP2]
[11] = target: T1, human Fc-NKG2D; assay: SPR (BIAcore 2000), human Fc-NKG2D immobilized on chip; remark: listed apart in the source
[12] = target: T1, human Fc-NKG2D
[13] = target: T1, human Fc-NKG2D; remark: listed apart in the source
[14] = target: T6, human MICA-Fc (human, UniProt Q29983 24-307, limits assumed); assay: whole-cell ELISA on HEK 293F/human NKG2D, 100 ng ligand-Fc, detected with biotinylated goat anti-human Fc and streptavidin-HRP, absorbance at 405 nm [panel MICA]
T6 construct: Bought from R&D Systems; also called recombinant human MICA-Fc; not shown: Fc part (detected with anti-human Fc)
T6 sequence (looked up): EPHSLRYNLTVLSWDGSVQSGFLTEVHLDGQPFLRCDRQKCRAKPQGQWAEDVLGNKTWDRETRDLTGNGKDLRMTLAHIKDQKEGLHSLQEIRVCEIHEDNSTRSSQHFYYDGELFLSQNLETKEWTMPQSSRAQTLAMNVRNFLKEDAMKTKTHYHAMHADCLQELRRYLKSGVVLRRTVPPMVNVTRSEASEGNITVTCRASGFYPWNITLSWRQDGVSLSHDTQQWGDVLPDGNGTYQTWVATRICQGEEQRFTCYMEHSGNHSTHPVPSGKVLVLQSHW

[15] = target: T7, human MICB-Fc (human, UniProt Q29980 23-298, limits assumed); assay: whole-cell ELISA on HEK 293F/human NKG2D, 100 ng ligand-Fc, detected with biotinylated goat anti-human Fc and streptavidin-HRP, absorbance at 405 nm [panel MICB]
T7 construct: Bought from R&D Systems; also called recombinant human MICB-Fc; not shown: Fc part (detected with anti-human Fc)
T7 sequence (looked up): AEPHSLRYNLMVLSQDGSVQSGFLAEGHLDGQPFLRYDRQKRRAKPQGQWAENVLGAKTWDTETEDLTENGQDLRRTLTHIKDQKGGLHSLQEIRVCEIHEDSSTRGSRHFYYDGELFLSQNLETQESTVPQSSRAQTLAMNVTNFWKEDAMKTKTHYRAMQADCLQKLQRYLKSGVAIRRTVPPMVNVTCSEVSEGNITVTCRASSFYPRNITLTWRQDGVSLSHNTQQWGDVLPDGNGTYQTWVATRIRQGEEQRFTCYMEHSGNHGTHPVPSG

T2 sequence (P02769 25-607 limits assumed): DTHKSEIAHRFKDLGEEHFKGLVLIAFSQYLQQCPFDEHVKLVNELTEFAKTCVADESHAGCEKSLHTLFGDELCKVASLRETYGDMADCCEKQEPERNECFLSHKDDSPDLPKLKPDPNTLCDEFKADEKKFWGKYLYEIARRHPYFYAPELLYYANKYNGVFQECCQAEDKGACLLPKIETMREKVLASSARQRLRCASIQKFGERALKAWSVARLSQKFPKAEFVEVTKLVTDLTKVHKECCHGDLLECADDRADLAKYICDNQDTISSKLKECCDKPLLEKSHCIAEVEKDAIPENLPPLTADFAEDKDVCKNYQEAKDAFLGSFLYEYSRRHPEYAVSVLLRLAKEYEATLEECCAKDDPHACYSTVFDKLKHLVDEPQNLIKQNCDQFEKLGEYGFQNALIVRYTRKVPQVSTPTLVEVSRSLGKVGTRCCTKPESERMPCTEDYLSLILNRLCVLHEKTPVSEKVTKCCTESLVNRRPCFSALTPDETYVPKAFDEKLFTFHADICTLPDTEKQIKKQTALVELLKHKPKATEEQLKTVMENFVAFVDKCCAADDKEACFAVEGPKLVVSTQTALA

Binder | koff [1] | kon [1] | Kd [2] | binding result [3] | binding result [4] | binding result [5] | binding result [6] | binding result [7] | koff [8] | kon [8] | Kd [9] | other results
KYK-1.0 Fab (Fab, V domains shown, Human Fab with human constant domains (lambda light chain) and a C-terminal (His)6 tag, expressed in E. coli from pC3C-His and purified by IMAC) VH: EVQLVESGGGVVQPGGSLRLSCAASGFTFSSYGMHWVRQAPGKGLEWVAFIRYDGSNKYYADSVKGRFTISRDNSKNTKYLQMNSLRAEDTAVYYCAKDRFGYYLDYWGQGTLVTVSS VL: QPVLTQPSSVSVAPGETARIPCGGDDIETKSVHWYQQKPGQAPVLVIYDDDDRPSGIPERFFGSNSGNTATLSISRVEAGDEADYYCQVWDDNNDEWVFGGGTQLTVL | 0.037 s⁻¹ | 1.4e+06 M⁻¹ s⁻¹ | 27 nM | no binding (tested: not shown) | no binding (tested: not shown) | no binding (tested: not shown) | no binding (tested: not shown) | no binding (tested: not shown) | – | – | – | –
KYK-1.0 IgG1 (antibody, V domains shown, Fully human IgG1 lambda; also called KYK-1.0 IgG1λ; PIGG-KYK-1.0) VH: EVQLVESGGGVVQPGGSLRLSCAASGFTFSSYGMHWVRQAPGKGLEWVAFIRYDGSNKYYADSVKGRFTISRDNSKNTKYLQMNSLRAEDTAVYYCAKDRFGYYLDYWGQGTLVTVSS VL: QPVLTQPSSVSVAPGETARIPCGGDDIETKSVHWYQQKPGQAPVLVIYDDDDRPSGIPERFFGSNSGNTATLSISRVEAGDEADYYCQVWDDNNDEWVFGGGTQLTVL | – | – | – | – | – | – | – | – | 0.00056 s⁻¹ | 310000 M⁻¹ s⁻¹ | 1.8 nM | –
B1 | – | – | – | – | – | – | – | – | – | – | – | binding result [10]: binds
KYK-2.0 Fab (Fab, V domains shown, Human Fab (lambda) with human constant domains and a C-terminal (His)6 tag, expressed in E. coli from pC3C-His and purified by IMAC) VH: QVQLVESGGGLVKPGGSLRLSCAASGFTFSSYGMHWVRQAPGKGLEWVAFIRYDGSNKYYADSVKGRFTISRDNSKNTKYLQMNSLRAEDTAVYYCAKDRGLGDGTYFDYWGQGTTVTVSS VL: QSALTQPASVSGSPGQSITISCSGSSSNIGNNAVNWYQQLPGKAPKLLIYYDDLLPSGVSDRFSGSKSGTSAFLAISGLQSEDEADYYCAAWDDSLNGPVFGGGTKLTVL | 0.0043 s⁻¹ | 740000 M⁻¹ s⁻¹ | 5.8 nM | no binding (tested: not shown) | no binding (tested: not shown) | no binding (tested: not shown) | no binding (tested: not shown) | no binding (tested: not shown) | – | – | – | fold improvement in affinity (Kd) over KYK-1.0 Fab [11]: ~4.5 fold; fold slower dissociation compared to KYK-1.0 Fab [11]: ~8.5 fold; Kd [12]: 1.9 to 3 nM; koff [12]: 0.0012 s⁻¹; kon [12]: 450000 M⁻¹ s⁻¹; Kd [13]: 1.9 to 3 nM; koff [13]: 0.0018 s⁻¹; kon [13]: 890000 M⁻¹ s⁻¹
KYK-2.0 IgG1 (antibody, V domains shown, It was biotinylated for flow cytometry on PBMC; also called KYK-2.0 IgG1λ; PIGG-KYK-2.0) VH: QVQLVESGGGLVKPGGSLRLSCAASGFTFSSYGMHWVRQAPGKGLEWVAFIRYDGSNKYYADSVKGRFTISRDNSKNTKYLQMNSLRAEDTAVYYCAKDRGLGDGTYFDYWGQGTTVTVSS VL: QSALTQPASVSGSPGQSITISCSGSSSNIGNNAVNWYQQLPGKAPKLLIYYDDLLPSGVSDRFSGSKSGTSAFLAISGLQSEDEADYYCAAWDDSLNGPVFGGGTKLTVL | – | – | – | – | – | – | – | – | 0.00012 s⁻¹ | 320000 M⁻¹ s⁻¹ | 0.38 nM | –
B2 | – | – | – | – | – | – | – | – | – | – | – | binding result [14]: binds; binding result [15]: binds

Source: patent US20110150870A1 (UNITED STATES OF AMERICA AS REPRESENTED BY TH, published 2011)
